For this test, the target named is T1, Human EphB4 (Genbank ID No. NP_004435) (human, UniProt P54760 16-987, limits assumed).
T1 construct: Detected as denatured protein on Western blot (MAb265), on tissue sections (MAb131) and by immunoprecipitation (MAb47); also called EphB4 receptor
T1 sequence: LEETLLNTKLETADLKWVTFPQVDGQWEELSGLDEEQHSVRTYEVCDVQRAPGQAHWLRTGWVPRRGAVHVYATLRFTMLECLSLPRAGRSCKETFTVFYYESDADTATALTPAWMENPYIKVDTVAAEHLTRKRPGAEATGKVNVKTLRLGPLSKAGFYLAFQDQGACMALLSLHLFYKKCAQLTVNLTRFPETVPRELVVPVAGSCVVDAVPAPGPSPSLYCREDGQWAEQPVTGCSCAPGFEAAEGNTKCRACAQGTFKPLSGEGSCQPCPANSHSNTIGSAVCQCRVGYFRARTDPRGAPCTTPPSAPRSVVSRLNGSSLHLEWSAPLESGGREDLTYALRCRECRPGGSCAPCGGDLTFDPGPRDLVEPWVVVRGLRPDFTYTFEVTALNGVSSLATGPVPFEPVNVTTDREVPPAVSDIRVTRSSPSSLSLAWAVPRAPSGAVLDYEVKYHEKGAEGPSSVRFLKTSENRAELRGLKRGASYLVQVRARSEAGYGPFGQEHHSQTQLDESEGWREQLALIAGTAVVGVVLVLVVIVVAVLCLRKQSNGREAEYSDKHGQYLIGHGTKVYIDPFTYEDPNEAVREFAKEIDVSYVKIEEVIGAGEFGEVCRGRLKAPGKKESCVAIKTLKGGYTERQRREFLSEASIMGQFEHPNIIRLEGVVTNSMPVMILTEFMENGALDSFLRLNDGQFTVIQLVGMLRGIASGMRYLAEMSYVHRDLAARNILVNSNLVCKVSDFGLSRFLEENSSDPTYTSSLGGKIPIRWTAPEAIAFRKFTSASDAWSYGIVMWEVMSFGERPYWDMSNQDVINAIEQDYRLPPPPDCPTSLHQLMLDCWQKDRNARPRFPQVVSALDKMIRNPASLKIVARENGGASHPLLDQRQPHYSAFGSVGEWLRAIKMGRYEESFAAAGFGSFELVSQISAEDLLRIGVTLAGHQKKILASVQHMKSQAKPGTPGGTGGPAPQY
Kind of test: Western blot. On the technique in general: In western blotting, separated proteins are transferred to a membrane and probed.

B1: mouse monoclonal antibody 265 (antibody, V domains shown)
VH: QQSGAELARPGASVKLSCKASGYTFTSYWMQWVKQRPGQGLEWIGAIYPGDGDTRYTQKFKGKATLTADKSSSTAYMQLSTLASEDSAVYYCARVGGWLLLAYWGQGTTVT
VL: DIVMTQSPSSLAMSVGQKVTMNCKSSQSLLNSNTQKNYLAWYQQKPGHSPKLLVYLSSTRESGVPDRFIGSGSGTDFTLTISSVQAEDLADYFCQQHYTTPLTFGAGTKLELKR
notes: Mouse monoclonal from a hybridoma; also called MAb265; MAB265
For B1, the binding result is “binds”.

(Values after WO2008112290A2 (dated 2008).)
